# Values joined by “and” are separate entries in the source; they are usually repeats but may differ in a detail not shown here. Equal entries are not always repeated.
# What was measured:
# [1] = molecular target: T1, C-terminally His-tagged full-length p97 (residues 1–806) (murine, UniProt Q01853 1-806); test: ITC; full-length p97 in the cell at 10–50 μM, FAF1 or FAF1 truncation as titrant at 7.5 to 10 times the cell concentration; 20 mM HEPES, 150 mM KCl, pH 7.4; 30 °C; average of two measurements; conditions: both partners purified
# T1 construct: p97 (VCP), murine, full length, residues 1–806, in PET22b; Hexamer, with a minor dodecamer, by SV-AUC; also called VCP; valosin-containing protein
# T1 sequence (Q01853 whole entry, the tested form may be a part): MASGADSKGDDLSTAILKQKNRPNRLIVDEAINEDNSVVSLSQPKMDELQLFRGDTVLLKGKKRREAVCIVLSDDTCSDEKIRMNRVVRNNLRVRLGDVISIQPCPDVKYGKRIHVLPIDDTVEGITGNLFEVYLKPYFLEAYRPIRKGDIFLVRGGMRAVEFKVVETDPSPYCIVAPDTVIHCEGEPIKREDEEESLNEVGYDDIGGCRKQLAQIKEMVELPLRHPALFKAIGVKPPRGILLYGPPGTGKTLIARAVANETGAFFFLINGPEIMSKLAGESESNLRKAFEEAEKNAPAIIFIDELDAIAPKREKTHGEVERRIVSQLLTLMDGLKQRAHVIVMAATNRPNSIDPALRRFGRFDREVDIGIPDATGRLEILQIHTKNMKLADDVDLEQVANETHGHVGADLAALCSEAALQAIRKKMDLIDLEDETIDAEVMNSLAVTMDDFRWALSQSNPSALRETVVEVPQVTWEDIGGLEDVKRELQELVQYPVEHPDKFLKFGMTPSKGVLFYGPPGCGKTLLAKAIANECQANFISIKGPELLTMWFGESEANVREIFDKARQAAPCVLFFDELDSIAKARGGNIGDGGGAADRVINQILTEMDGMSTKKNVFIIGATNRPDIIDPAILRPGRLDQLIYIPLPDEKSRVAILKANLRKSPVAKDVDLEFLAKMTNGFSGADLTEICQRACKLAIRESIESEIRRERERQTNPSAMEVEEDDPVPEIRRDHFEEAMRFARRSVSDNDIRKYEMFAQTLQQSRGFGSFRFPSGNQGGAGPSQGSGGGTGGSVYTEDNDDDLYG
# [2] = molecular target: the molecule itself; test: cross-linking; 15 μM FAF1 or truncation in SEC buffer with ethyl glycol bissuccinimidyl succinate (EGS), 15 min at room temperature, stopped with Tris, SDS-PAGE
# [3] = molecular target: T1, C-terminally His-tagged full-length p97 …; test: MST; 0.06 μM dye-labelled FAF1 kept constant, full-length p97 titrated between 135 and 0.0041 μM; 20 mM HEPES, 150 mM KCl, pH 7.4; 30 °C; average of two experiments, Hill equation fit; conditions: both partners purified
# [4] = molecular target: the molecule itself; test: native MS; full-length FAF1 at 10 μM in 200 mM ammonium acetate pH 7.5; Q-ToF modified for high mass detection
Binder,Kd [1],stoichiometry N [1],KD site 1 (two-site model) [1],KD site 2 (two-site model) [1],stoichiometry N [2],Kd [3],stoichiometry N [4]
"FAF1-UBX(550–649) (domain or fragment, murine, UniProt P54731 550-649, looked up, Fas-associated factor 1 (FAF1), residues 550–649 (UBX domain), in pGEx; also called UBX domain of FAF1; source: E. coli Rosetta 2 (autoinduction), purified (GSTrap, GST cleaved with HRV 3C, size-exclusion chromatography)) EAIRLSLEQALPPEPKEENAEPVSKLRIRTPSGEFLERRFLASNKLQIVFDFVASKGFPWDEFKLLSTFPRRDVTQLDPNKSLLEVNLFPQETLFLQAKE",3.9 µM,0.98 ± 0.1 FAF1-UBX per p97,,,,,
"FAF1-CC-UBX(491–649) (domain or fragment, murine, UniProt P54731 491-649, looked up, Fas-associated factor 1 (FAF1), residues 491–649 (coiled-coil and UBX domains), in pGEx; also called coiled-coil and UBX domains of FAF1; source: E. coli Rosetta 2 (autoinduction), purified (GSTrap, GST cleaved with HRV 3C, size-exclusion chromatography)) QEDIKDEDEREARENVKREQDEAYRLSLEADRAKREAHEREMAEQFRLEQIRKEQEEEREAIRLSLEQALPPEPKEENAEPVSKLRIRTPSGEFLERRFLASNKLQIVFDFVASKGFPWDEFKLLSTFPRRDVTQLDPNKSLLEVNLFPQETLFLQAKE",4.9 µM,0.89 ± 0.3 FAF1-CC-UBX per p97,0.7 µM,12 µM,3,,
"N-terminally His-tagged full-length FAF1 (natural protein, murine, UniProt P54731 1-649, looked up, NanoTemper495-N-hydroxysuccinimide blue/red dye label (in the MST only), Fas-associated factor 1 (FAF1), full length, in pProEx; the truncations end at residue 649; N-terminally His-tagged FAF1 was used for all experiments except nanogold labelling; also called Fas-associated factor 1; His-tagged FAF1; source: held on the nickel column from cleared lysate in the pull-down; not shown: His tag, N-terminal, kept) MASNMDREMILADFQACTGIENIDEAITLLEQNNWDLVAAINGVIPQENGILQSDFGGETMPGPTFDPASHPAPASTPSSSAFRPVMPSRQIVERQPRMLDFRVEYRDRNVDVVLEDSCTVGEIKQILENELQIPVPKMLLKGWKTGDVEDSTVLKSLHLPKNNSLYVLTPDLPPPSSSSHAGALQESLNQNFMLIITHREVQREYNLNFSGSSTVQEVKRNVYDLTSIPVRHQLWEGWPASATDDSMCLAESGLSYPCHRLTVGRRTSPVQTREQSEEQSTDVHMVSDSDGDDFEDASEFGVDDGEVFGMASSTLRKSPMMPENAENEGDALLQFTAEFSSRYGDCHPVFFIGSLEAAFQEAFYVKARDRKLLAIYLHHDESVLTNVFCSQMLCAESIVSYLSQNFITWAWDLTKDTNRARFLTMCNRHFGSVIAQTIRTQKTDQFPLFLIIMGKRSSNEVLNVIQGNTTVDELMMRLMAAMEIFSAQQQEDIKDEDEREARENVKREQDEAYRLSLEADRAKREAHEREMAEQFRLEQIRKEQEEEREAIRLSLEQALPPEPKEENAEPVSKLRIRTPSGEFLERRFLASNKLQIVFDFVASKGFPWDEFKLLSTFPRRDVTQLDPNKSLLEVNLFPQETLFLQAKE",5.2 µM,0.8 ± 0.03 FAF1 per p97,0.8 µM,19 µM,,0.13 µM,2 and 3

# Reference: article PMC4002113, “The p97-FAF1 Protein Complex Reveals a Common Mode of p97 Adaptor Binding*” (The Journal of Biological Chemistry, 2014)
